Measurements reported in the RNAGym collection of RNA variant scans (doi:10.1073/pnas.2313332121).

B1: TPR t1 (parent)
chain: GACCAAUCUGCCCUCAGAGCUCGAGAACAUCUUCGGAUGCAGAGGAGGCAGGCUUCGGUGGCGCGAUAGCGCCAACGUCCUCAACCUCCAAUGCAUCCCACCACAUGAUGAUGCCUGAAGAGCCUUGGUUUUUUG

Variants of: B1
Experiment: polymerase ribozyme fitness, log enrichment relative to wild type (log ratio); higher = more active; in vitro selection for triplet polymerase activity
Outline: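 A heterodimeric triplet polymerase ribozyme had each of its subunits mutagenized by PCR into a library, which was transcribed. One round of in vitro selection, done in triplicate, annealed each library with a biotinylated primer, its partner subunit and triplets, then incubated it frozen at −7 °C before gel excision of extended constructs, streptavidin-bead capture and RT-PCR. Fitness is the logarithm of genotype enrichment relative to wild-type enrichment, based on Illumina sequencing of inputs and outputs and inverse-variance-weighted replicate averages. A base-2 logarithm is used, and genotypes were kept only with ≥10 input reads and ≥1 read per output.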

Q: With G61A C99U as the variant, how does the “polymerase ribozyme fitness (log ratio)” value read?
A: -2.85

Q: With G61C U78G A111U U131A as the variant, how does the “polymerase ribozyme fitness (log ratio)” value read?
A: -5.71

Q: With G60C G61U as the variant, how does the “polymerase ribozyme fitness (log ratio)” value read?
A: -1.76

Q: For G60U C98G, which “polymerase ribozyme fitness (log ratio)” value is on record?
A: -5.35

Q: Which “polymerase ribozyme fitness (log ratio)” value does the source give for G60C C86A here?
A: -2.44

Q: Which “polymerase ribozyme fitness (log ratio)” value does the source give for G60C C86U here?
A: 0.269

Q: Which “polymerase ribozyme fitness (log ratio)” value does the source give for G60U A103U here?
A: -4.99

Q: Which “polymerase ribozyme fitness (log ratio)” value does the source give for G61C A91G U112C G122A here?
A: -3.24

Q: For G61C C82U G117A, which “polymerase ribozyme fitness (log ratio)” value is on record?
A: -2.78

Q: With G61A C124U as the variant, how does the “polymerase ribozyme fitness (log ratio)” value read?
A: 1.51

Q: Which “polymerase ribozyme fitness (log ratio)” value does the source give for G61C U133A here?
A: -1.7

Q: For G61A G127U U134C, which “polymerase ribozyme fitness (log ratio)” value is on record?
A: -0.718

Q: With G61C A91U as the variant, how does the “polymerase ribozyme fitness (log ratio)” value read?
A: -4.64

Q: For G61A U87C U126G, which “polymerase ribozyme fitness (log ratio)” value is on record?
A: -1.59

Q: Which “polymerase ribozyme fitness (log ratio)” value does the source give for G60C C70A U78A C85G C98U G117C here?
A: -6.56

Q: For G61U A74C C123G, which “polymerase ribozyme fitness (log ratio)” value is on record?
A: -5.28

Q: For G61A G122A, which “polymerase ribozyme fitness (log ratio)” value is on record?
A: -0.219

Q: Which “polymerase ribozyme fitness (log ratio)” value does the source give for G61A G122U here?
A: 0.115

Q: For G61C C64A C94G G113C C124A, which “polymerase ribozyme fitness (log ratio)” value is on record?
A: -6.83

Q: For G61U C82U, which “polymerase ribozyme fitness (log ratio)” value is on record?
A: -0.605

Q: With G61A A105G as the variant, how does the “polymerase ribozyme fitness (log ratio)” value read?
A: -1.89

Q: For G61C A121C, which “polymerase ribozyme fitness (log ratio)” value is on record?
A: -0.241

Q: For G60U A103G U112G, which “polymerase ribozyme fitness (log ratio)” value is on record?
A: -6.67

Q: For G61A C88A G120C A121U, which “polymerase ribozyme fitness (log ratio)” value is on record?
A: 0.393

Q: With G60C U129G as the variant, how does the “polymerase ribozyme fitness (log ratio)” value read?
A: -1.43

Q: Which “polymerase ribozyme fitness (log ratio)” value does the source give for G61C G93C here?
A: -3.2

Q: With G61A C123U as the variant, how does the “polymerase ribozyme fitness (log ratio)” value read?
A: 1.29

Q: For G61A C123A, which “polymerase ribozyme fitness (log ratio)” value is on record?
A: 0.936

Q: With G61C U112G as the variant, how does the “polymerase ribozyme fitness (log ratio)” value read?
A: -2.38

Q: With G61C U112C as the variant, how does the “polymerase ribozyme fitness (log ratio)” value read?
A: 0.0988

Q: With G61C A84G U109G as the variant, how does the “polymerase ribozyme fitness (log ratio)” value read?
A: -6.69

Q: For G61C C101G, which “polymerase ribozyme fitness (log ratio)” value is on record?
A: -3.98

Q: For G61C C101A, which “polymerase ribozyme fitness (log ratio)” value is on record?
A: -2.74

Q: Which “polymerase ribozyme fitness (log ratio)” value does the source give for G60U A121C here?
A: 1.48

Q: For G61A A95U, which “polymerase ribozyme fitness (log ratio)” value is on record?
A: 0.338

Q: For G60U A103C U106G U125A, which “polymerase ribozyme fitness (log ratio)” value is on record?
A: -5.2

Q: For G60U C102U A108G, which “polymerase ribozyme fitness (log ratio)” value is on record?
A: -3.29

Q: For G61A U87A C124A, which “polymerase ribozyme fitness (log ratio)” value is on record?
A: 1.93

Q: With G61C U96A as the variant, how does the “polymerase ribozyme fitness (log ratio)” value read?
A: -2.71

Q: For G61C U125A, which “polymerase ribozyme fitness (log ratio)” value is on record?
A: -1.89

Q: Which “polymerase ribozyme fitness (log ratio)” value does the source give for G61A C115A here?
A: 0.519

Q: For G61A C115U, which “polymerase ribozyme fitness (log ratio)” value is on record?
A: -0.993

Q: For G60U C72U A111U, which “polymerase ribozyme fitness (log ratio)” value is on record?
A: -2.86

Q: Which “polymerase ribozyme fitness (log ratio)” value does the source give for G61A C86A here?
A: -0.514

Q: With G60U C101U G120A as the variant, how does the “polymerase ribozyme fitness (log ratio)” value read?
A: 0.583

Q: With G60U G77A U131A as the variant, how does the “polymerase ribozyme fitness (log ratio)” value read?
A: -0.885

Q: For G61A A66U U78C A118G, which “polymerase ribozyme fitness (log ratio)” value is on record?
A: -1.83

Q: For G60U A95G C115G, which “polymerase ribozyme fitness (log ratio)” value is on record?
A: -2.25

Q: For G61A U78C C80U, which “polymerase ribozyme fitness (log ratio)” value is on record?
A: -5.11

Q: For G61C C80G, which “polymerase ribozyme fitness (log ratio)” value is on record?
A: -4.64

Q: Which “polymerase ribozyme fitness (log ratio)” value does the source give for G61C C80U here?
A: -5.08

Q: For G60U U78G C79A G110A U126C, which “polymerase ribozyme fitness (log ratio)” value is on record?
A: -4.68

Q: With G61A C88G G110A as the variant, how does the “polymerase ribozyme fitness (log ratio)” value read?
A: -1.26

Q: With G60U C73U U106A as the variant, how does the “polymerase ribozyme fitness (log ratio)” value read?
A: -0.452

Q: With G61A C80G U109A G113U U133G as the variant, how does the “polymerase ribozyme fitness (log ratio)” value read?
A: -5.53

Q: For G60U G107A, which “polymerase ribozyme fitness (log ratio)” value is on record?
A: -3.31

Q: Which “polymerase ribozyme fitness (log ratio)” value does the source give for G60C U112G here?
A: -0.433

Q: For G60C U112A, which “polymerase ribozyme fitness (log ratio)” value is on record?
A: 0.838

Q: Which “polymerase ribozyme fitness (log ratio)” value does the source give for G61U C79A G110U here?
A: -3.28

Q: For G60C C94U C124U, which “polymerase ribozyme fitness (log ratio)” value is on record?
A: 1.26

Q: Which “polymerase ribozyme fitness (log ratio)” value does the source give for G61A G93U A111G here?
A: 0.181

Q: With G60U G128U as the variant, how does the “polymerase ribozyme fitness (log ratio)” value read?
A: -2.12

Q: With G60U G128A as the variant, how does the “polymerase ribozyme fitness (log ratio)” value read?
A: -1.69

Q: For G61A G120A, which “polymerase ribozyme fitness (log ratio)” value is on record?
A: 0.833

Q: Which “polymerase ribozyme fitness (log ratio)” value does the source give for G61C G127A U129A here?
A: -2.95

Q: Which “polymerase ribozyme fitness (log ratio)” value does the source give for G61U C79U here?
A: 0.149

Q: For G61C C73U, which “polymerase ribozyme fitness (log ratio)” value is on record?
A: -2.31

Q: For G61C C88A G117U, which “polymerase ribozyme fitness (log ratio)” value is on record?
A: -5.25

Q: Which “polymerase ribozyme fitness (log ratio)” value does the source give for G61U C62A U112A G128A U133A here?
A: -5.42

Q: Which “polymerase ribozyme fitness (log ratio)” value does the source give for G61A U78C C104A here?
A: -1.61

Q: Which “polymerase ribozyme fitness (log ratio)” value does the source give for G61A C82G A105C here?
A: -2.79

Q: For G61A C76U C97U, which “polymerase ribozyme fitness (log ratio)” value is on record?
A: -4.24

Q: For G60U A84G G128A, which “polymerase ribozyme fitness (log ratio)” value is on record?
A: -1.56

Q: For G61U C82G C85U A119U, which “polymerase ribozyme fitness (log ratio)” value is on record?
A: -0.891

Q: With G61A C88G G120A A121C as the variant, how does the “polymerase ribozyme fitness (log ratio)” value read?
A: -1.75

Q: Which “polymerase ribozyme fitness (log ratio)” value does the source give for G60C C88U here?
A: -0.669

Q: With G61C C104U as the variant, how does the “polymerase ribozyme fitness (log ratio)” value read?
A: -1.51

Q: With G60U C114A G127C as the variant, how does the “polymerase ribozyme fitness (log ratio)” value read?
A: -2.37

Q: Which “polymerase ribozyme fitness (log ratio)” value does the source give for G61C A90C U126A here?
A: -4.32

Q: With G61U C64U as the variant, how does the “polymerase ribozyme fitness (log ratio)” value read?
A: -3.25

Q: Which “polymerase ribozyme fitness (log ratio)” value does the source give for G61C C99U A111C here?
A: -5.26

Q: For G61A C88A, which “polymerase ribozyme fitness (log ratio)” value is on record?
A: -0.575

Q: For G61A A83C G110U G117U, which “polymerase ribozyme fitness (log ratio)” value is on record?
A: -5.13
